Measurements taken from publication PMC4669440.

Assay: micro-CT of femur
Settings: glycan lost; control: WT mice

B1: Dentin matrix protein 1 (DMP1): S89G (protein)
parent chain: MKTVILLVFLWGLSCALPVARYHNTESESSEERTGDLAGSPPPPTNSESSEESQASPEGQANSDHTDSSESGEELGYDRGQYRPAGGLSKSTGTGADKEDDEDDSGDDTFGDEDNDLGPEEGQWGGPSKLDSDEDSTDTTQSSEDSTSQENSAQDTPSDSKDHDSEDEADSRPEAGDSTQDSESEEQRVGGGSEGESSHGDGSEFDDEGMQSDDPESTRSDRGHARMSSAGIRSEESKGDHEPTSTQDSDDSQSVEFSSRKSFRRSHVSEEDYRGELTDSNSRETQSDSTEDTASKEESRSESQEDTAESQSQEDSPEGQDPSSESSEEAGEPSQESSSESQEGVTSESRGDNPDNTSQAGDQEDSESSEEDSLNTFSSSESQSTEEQADSESNESLSLSEESQESAQDGDSSSQEGLQSQSASTESRSQESQSEQDSRSEEDSDSQDSSRSKEESNSTGSASSSEEDIRPKNMEADSRKLIVDAYHNKPIGDQDDNDCQDGY
other: bone material density: increases
